These results are taken from publication PMC10172140.

One assay deals with KOR N336^8.49A (human) (UniProt P41145).
The target in assay [1] is BRIL-wt-KOR(54–368) reconstituted into nanodiscs (human) (UniProt P41145).
The target in a further assay is KOR R156^3.50A (human) (UniProt P41145).
The target of assay [2] is κ-opioid receptor in homogenous membrane fractions expressing KOR (human) (UniProt P41145).

In the case of “wild-type GoA heterotrimeric G protein (from UniProt P09471 1-354; P62873 1-340; P59768 1-71) (complex)”, the loss in potency of agonist-mediated GoA coupling against wild-type KOR, BRET2 with KOR N336^8.49A (human) was 14 fold. In assay [1], the fold increase of the high-affinity binding sites (Bmax) for the agonist radioligand ^3H-U69,593 in saturation binding, with 1 μM G protein against KOR alone is 38 fold.
For the substance “wild-type Gz heterotrimeric G protein (from UniProt P19086 1-355; P62873 1-340; P59768 1-71) (complex)”, the loss in potency of agonist-mediated Gz coupling against wild-type KOR, BRET2 with KOR N336^8.49A (human) is 9 fold. Moreover, the fold increase of the high-affinity binding sites (Bmax) for the agonist radioligand ^3H-U69,593 in saturation binding, with 1 μM G protein against KOR alone in assay [1] was found to be 14 fold.
On to “wild-type Gg (gustducin) heterotrimeric G protein (from UniProt A8MTJ3 1-354; P62873 1-340; P59768 1-71) (complex)”, for which, in the assay with KOR R156^3.50A (human), the efficacy of GR89,696-mediated Gg activation, BRET2, normalized to U50,488 came to 46% and the efficacy of momSalB-mediated Gg activation, BRET2, normalized to U50,488 was found to be 38%. In assay [2], this substance had an efficacy of GR89,696-mediated Gg activation, BRET2, normalized to U50,488 of 103% and an efficacy of momSalB-mediated Gg activation, BRET2, normalized to U50,488 of 106%. Besides, the fold increase of the high-affinity binding sites (Bmax) for the agonist radioligand ^3H-U69,593 in saturation binding, with 1 μM G protein against KOR alone in assay [1] stood at 7 fold.
“wild-type Gi1 heterotrimeric G protein (from UniProt P63096 1-354; P62873 1-340; P59768 1-71) (complex)” registered a loss in potency of agonist-mediated Gi1 coupling against wild-type KOR, BRET2 with KOR N336^8.49A (human) of 2 fold. Besides, the fold increase of the high-affinity binding sites (Bmax) for the agonist radioligand ^3H-U69,593 in saturation binding, with 1 μM G protein against KOR alone in assay [1] came to 62 fold.
